Biological target: c8-ring of the Fo domain (bovine (endogenous in bovine heart mitochondria)), P32876
Assay: cryo-EM structure
Conditions: remark: other sources report otherwise

stoichiometry N: 8
B1: c8-ring of the Fo domain, P32876 62-136 (natural protein)
chain: DIDTAAKFIGAGAATVGVAGSGAGIGTVFGSLIIGYARNPSLKQQLFSYAILGFALSEAMGLFCLMVAFLILFAM

— article doi:10.1101/2025.09.19.677273
